Measurements published in paper PMC11032447 (2024).

B1: mouse secretagogin [mouse] / helix-b of the Habc domain of mouse syntaxin-4 [mouse] (parent complex)
chain 1: MDNARRKTPARLDAACFWQIWQRFDKEEKGYIRETELDAFFDHLLAKSGTEDTLMEENVQKVKEQLMTSHNVSKEGRILMKELASMFLSEDENFLLFFRLETPLDNSVEFMQIWRKYDADSSGFISAAELCNFLRDLFLHHKKNISEAELEEYTSTMMKIFDKNKDGRLDLNDLARILALQENFLLQFKMDASSTEERKRDFEKIFAHYDVSKTGALEGPEVDGFVKDMMELVQPSISGVDLDKFREILLRHCDVNKDGKIQKSELALCLGLKINP
chain 2: TPLPEESMKQGLQNLREEIKQLGREVRAQLKAIEPQKE

Variants of: B1
Experiment: ITC

Row | Kd | Variant
1 | 16.2 µM | chain 1 MDNARRKTPARLDAACFWQIWQRFDKEEKGYIRETELDAFFDHLLAKSGTEDTLMEENVQKVKEQLMTSHNVSKEGRILMKELASMFLSEDENFLLFFRLETPLDNSVEFMQIWRKYDADSSGFISAAELCNFLRDLFLHHKKNISEAELEEYTSTMMKIFDKNKDGRLDLNDLARILALQENFLLQFKMDASSTEERKRDFEKIFAHYDVSKTGALEGPEVDGFVKDMMELVQPSISGVDLDKFREILLRHCDVNKDGKIQKSELALCAGLKINP [chain 1 L270A]
